The text below walks through data of paper PMC3257248, “Wnt4 Participates in the Formation of Vertebrate Neuromuscular Junction” (PLoS ONE, 2012).

For the assay, the target named is T1, MuSK (muscle specific kinase), full length (rat, UniProt Q62838 22-868).
T1 sequence (looked up): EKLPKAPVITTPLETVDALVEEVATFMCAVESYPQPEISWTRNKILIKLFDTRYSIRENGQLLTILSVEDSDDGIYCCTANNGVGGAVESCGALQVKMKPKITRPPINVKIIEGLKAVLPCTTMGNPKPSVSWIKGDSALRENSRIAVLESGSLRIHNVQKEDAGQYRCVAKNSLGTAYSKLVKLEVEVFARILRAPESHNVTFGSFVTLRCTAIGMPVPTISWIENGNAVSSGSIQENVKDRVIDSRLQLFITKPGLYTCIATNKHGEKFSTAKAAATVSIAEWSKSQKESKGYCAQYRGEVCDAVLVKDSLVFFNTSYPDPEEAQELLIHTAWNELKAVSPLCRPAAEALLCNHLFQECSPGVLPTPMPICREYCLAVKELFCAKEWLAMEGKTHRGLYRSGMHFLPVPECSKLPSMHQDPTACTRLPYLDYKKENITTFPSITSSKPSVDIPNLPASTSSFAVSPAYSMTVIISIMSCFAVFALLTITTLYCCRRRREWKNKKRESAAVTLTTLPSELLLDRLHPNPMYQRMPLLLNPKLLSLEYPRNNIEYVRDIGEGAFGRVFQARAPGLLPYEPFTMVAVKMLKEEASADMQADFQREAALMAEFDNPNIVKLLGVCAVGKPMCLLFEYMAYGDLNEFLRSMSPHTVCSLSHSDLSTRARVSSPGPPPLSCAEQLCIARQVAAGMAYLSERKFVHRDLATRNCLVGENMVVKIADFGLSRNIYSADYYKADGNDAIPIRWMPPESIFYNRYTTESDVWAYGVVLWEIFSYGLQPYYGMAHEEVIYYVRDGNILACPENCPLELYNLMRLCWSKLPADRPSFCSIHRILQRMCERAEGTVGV
Description: cell-based or functional assay.

B1: HA-tagged Wnt4 (ligand, UniProt P22724 23-351, looked up)
chain: SNWLYLAKLSSVGSISEEETCEKLKGLIQRQVQMCKRNLEVMDSVRRGAQLAIEECQYQFRNRRWNCSTLDSLPVFGKVVTQGTREAAFVYAISSAGVAFAVTRACSSGELEKCGCDRTVHGVSPQGFQWSGCSDNIAYGVAFSQSFVDVRERSKGASSSRALMNLHNNEAGRKAILTHMRVECKCHGVSGSCEVKTCWRAVPPFRQVGHALKEKFDGATEVEPRRVGSSRALVPRNAQFKPHTDEDLVYLEPSPDFCEQDIRSGVLGTRGRTCNKTSKAIDGCELLCCGRGFHTAQVELAERCGCRFHWCCFVKCRQCQRLVEMHTCR
B1: the “MuSK tyrosine phosphorylation (pTyr blot of HA immunoprecipitates, +Wnt4/-Wnt4 ratio) in HEK 293T cells cotransfected with HA-MuSK with or without Wnt4-HA” value stood at 2 fold.
